Consider seven molecules from patent US7094873 (University of Texas, dated 2006).

The target of one assay is T1, Bovine Hsc70 (Stressgen) (bovine, UniProt P19120 2-650).
T1 construct: also called purified Hsc70
Put plainly: GST-hCHIP fragments, in vitro binding assay, immunoblot. For orientation: Immunoblotting shows a protein as a band on a membrane.

Assay [1] deals with T2, Human Hsp70 (Stressgen) (human, UniProt P0DMV8 1-641). Described as above.
Assay [2] has as its target T3, Fragments of Hsc70 in frame with the GAL4 activation domain (five prey clones, human heart cDNA library in … (human, UniProt P11142 394-646, limits assumed)).
T3 construct: domain: carboxyl terminus
In words: yeast two-hybrid.

Assay [3] addresses T4, Fragments of Hsp70 in frame with the GAL4 activation domain (three prey clones, human heart cDNA library in … (human, UniProt P0DMV8 417-641, limits assumed)).
T4 construct: domain: carboxyl terminus; Three clones treated as one molecule
Put plainly: yeast two-hybrid.

The target of assay [4] is SV40 large T antigen (negative control protein, Clontech) (SV40, UniProt P03070 84-708). In words: yeast two-hybrid.
Assay [5] addresses T2, Human Hsp70 (Stressgen). In words: cell-based or functional assay.
A further assay concerns the target T5, Human Hsp40 (Stressgen) (human, UniProt P25685 1-340).
T5 construct: also called co-chaperone Hsp40
In words: GST pulldown on glutathione-Sepharose beads, immunoblot.

Assay [6] deals with T6, GST-Hsc70 (amino acid residues 1-540) (UniProt P11142 1-540).
T6 construct: range 1-540; From E. Ungewickell; also called pGEXHsc70 (1-540); not shown: glutathione S-transferase (GST) of a pGEX vector
In words: GST-Hsc70 deletion mutants on beads with 35S-labeled hCHIP, autoradiography.

T2 sequence (P0DMV8 whole entry, the tested form may be a part): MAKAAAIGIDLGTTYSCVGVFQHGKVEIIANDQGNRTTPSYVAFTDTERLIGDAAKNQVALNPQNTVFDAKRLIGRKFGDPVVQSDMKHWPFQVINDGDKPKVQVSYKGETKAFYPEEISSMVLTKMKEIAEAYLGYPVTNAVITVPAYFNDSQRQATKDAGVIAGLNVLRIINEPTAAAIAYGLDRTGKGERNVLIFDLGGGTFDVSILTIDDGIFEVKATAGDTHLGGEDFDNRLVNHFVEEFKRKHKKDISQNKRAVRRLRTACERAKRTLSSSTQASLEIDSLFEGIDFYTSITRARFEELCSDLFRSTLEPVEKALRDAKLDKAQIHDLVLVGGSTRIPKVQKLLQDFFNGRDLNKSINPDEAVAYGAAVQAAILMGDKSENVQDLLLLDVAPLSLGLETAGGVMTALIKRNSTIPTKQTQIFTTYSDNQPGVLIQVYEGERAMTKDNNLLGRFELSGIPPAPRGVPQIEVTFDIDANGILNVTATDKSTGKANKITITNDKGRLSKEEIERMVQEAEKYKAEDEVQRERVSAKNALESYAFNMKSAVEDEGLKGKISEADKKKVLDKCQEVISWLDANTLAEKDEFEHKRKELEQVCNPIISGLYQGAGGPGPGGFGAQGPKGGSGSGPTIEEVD
T1 sequence (P19120 2-650 limits assumed): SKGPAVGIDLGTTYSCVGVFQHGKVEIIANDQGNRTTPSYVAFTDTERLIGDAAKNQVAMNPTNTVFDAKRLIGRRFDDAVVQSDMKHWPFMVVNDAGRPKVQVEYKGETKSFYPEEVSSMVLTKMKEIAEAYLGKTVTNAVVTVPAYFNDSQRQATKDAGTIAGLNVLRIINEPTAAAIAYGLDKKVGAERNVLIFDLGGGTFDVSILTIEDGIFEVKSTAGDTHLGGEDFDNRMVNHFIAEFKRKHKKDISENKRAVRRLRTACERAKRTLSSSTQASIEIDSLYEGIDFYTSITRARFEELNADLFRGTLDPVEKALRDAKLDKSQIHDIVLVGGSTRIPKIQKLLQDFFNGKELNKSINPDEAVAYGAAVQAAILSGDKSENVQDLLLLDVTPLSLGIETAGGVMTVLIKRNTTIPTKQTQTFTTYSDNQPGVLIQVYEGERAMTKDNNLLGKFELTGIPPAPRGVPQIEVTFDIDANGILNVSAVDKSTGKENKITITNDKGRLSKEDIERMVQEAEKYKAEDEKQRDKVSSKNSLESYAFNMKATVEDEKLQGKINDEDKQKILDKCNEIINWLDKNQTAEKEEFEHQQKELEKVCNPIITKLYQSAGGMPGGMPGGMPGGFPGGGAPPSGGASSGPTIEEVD
T3 sequence (P11142 394-646 limits assumed): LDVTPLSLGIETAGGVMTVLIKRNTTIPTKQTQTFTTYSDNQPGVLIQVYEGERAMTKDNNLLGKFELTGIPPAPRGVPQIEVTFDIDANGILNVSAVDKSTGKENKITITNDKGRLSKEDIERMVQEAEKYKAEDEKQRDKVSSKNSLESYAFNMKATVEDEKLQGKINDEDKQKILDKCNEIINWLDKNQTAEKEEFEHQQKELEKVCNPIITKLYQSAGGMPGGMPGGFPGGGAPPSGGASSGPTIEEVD
Chain of SV40 large T antigen (negative control protein, Clontech) (P03070 84-708 limits assumed): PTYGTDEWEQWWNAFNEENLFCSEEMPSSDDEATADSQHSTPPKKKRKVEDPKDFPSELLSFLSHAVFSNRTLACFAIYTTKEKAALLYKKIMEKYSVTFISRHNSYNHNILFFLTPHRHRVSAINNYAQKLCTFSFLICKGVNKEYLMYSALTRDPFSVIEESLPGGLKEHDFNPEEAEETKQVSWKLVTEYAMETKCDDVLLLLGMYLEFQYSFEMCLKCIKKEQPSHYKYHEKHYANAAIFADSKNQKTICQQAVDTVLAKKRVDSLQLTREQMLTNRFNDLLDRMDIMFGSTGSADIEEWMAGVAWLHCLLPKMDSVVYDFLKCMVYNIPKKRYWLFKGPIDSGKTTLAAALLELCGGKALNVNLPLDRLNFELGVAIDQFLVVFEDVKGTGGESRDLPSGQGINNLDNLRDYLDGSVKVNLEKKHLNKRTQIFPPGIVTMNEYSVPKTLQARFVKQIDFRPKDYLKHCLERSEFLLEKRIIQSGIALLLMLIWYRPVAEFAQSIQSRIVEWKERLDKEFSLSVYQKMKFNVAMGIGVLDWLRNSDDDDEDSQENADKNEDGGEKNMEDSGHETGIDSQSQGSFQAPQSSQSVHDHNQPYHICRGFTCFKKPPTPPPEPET
T6 sequence (P11142 1-540): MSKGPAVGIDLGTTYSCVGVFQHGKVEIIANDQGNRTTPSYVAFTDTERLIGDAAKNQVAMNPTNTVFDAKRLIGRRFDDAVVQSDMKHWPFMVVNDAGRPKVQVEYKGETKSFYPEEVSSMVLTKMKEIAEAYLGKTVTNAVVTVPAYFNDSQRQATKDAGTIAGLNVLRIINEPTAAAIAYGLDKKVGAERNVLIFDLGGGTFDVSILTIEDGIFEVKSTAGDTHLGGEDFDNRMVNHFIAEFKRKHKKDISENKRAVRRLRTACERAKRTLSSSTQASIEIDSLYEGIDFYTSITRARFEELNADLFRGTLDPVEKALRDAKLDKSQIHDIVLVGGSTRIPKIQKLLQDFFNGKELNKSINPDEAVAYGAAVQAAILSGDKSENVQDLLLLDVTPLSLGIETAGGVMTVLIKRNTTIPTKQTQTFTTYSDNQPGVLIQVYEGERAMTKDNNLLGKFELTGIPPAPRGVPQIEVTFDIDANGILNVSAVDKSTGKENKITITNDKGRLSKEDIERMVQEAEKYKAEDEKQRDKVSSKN
T5 sequence (P25685 whole entry): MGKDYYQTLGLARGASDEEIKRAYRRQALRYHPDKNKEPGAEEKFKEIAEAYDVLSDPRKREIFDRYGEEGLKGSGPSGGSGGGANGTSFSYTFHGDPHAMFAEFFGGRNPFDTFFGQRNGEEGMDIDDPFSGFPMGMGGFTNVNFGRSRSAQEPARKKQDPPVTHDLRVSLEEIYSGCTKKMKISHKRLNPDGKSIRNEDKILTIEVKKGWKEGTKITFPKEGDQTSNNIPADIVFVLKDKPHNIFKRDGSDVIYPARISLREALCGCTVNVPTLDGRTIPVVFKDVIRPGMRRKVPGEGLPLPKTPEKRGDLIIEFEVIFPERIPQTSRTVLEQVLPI
T4 sequence (P0DMV8 417-641 limits assumed): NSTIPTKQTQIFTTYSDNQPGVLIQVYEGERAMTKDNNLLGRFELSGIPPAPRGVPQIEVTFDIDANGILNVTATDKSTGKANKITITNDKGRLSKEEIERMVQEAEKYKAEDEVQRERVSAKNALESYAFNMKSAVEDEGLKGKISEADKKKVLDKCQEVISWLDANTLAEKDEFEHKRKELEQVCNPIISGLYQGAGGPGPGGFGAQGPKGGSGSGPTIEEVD

B1: GST-hCHIP fusion protein (amino acid residues 1-197) (other)
chain: MKGKEEKEGGARLGAGGGSPEKSPSAQELKEQGNRLFVGRKYPEAAACYGRVITRNPLVAVYYTNRALCYLKMQQHEQALADCRRALELDGQSVKAHFFLGQCQLEMESYDEAIANLQRAYSLAKEQRLNFGDDIPSALRIAKKKRWNSIEERRIHQESELHSYLSRLIAAERERELEECQRNHEGDEDDSHVRAQQ
notes: TPR domains plus the adjacent charged domain; also called GST construct 4; not shown: glutathione S-transferase (GST) encoded by vector pGEX KG
B1: the binding result in the assay with Bovine Hsc70 (Stressgen) and with Human Hsp70 (Stressgen) [1] was “binds” throughout.

B2: lamin C (negative control, yeast two-hybrid) (other, UniProt P02545-2 66-230, looked up)
chain: SEEVVSREVSGIKAAYEAELGDARKTLDSVAKERARLQLELSKVREEFKELKARNTKKEGDLIAAQARLKDLEALLNSKEAALSTALSEKRTLEGELHDLRGQVAKLEAALGEAKKQLQDEMLRRVDAENRLQTMKEELDFQKNIYSEELRETKRRHETRLVEID
Consider B2, for which the binding result in assay [2] and in assay [3] was “no binding” in each case.

B3: Full-length hCHIP fused to the GAL4 DNA-binding domain (bait, plasmid pAS2-1) (other)
chain: MKLLSSIEQACDICRLKKLKCSKEKPKCAKCLKNNWECRYSPKTKRSPLTRAHLTEVESRLERLEQLFLLIFPREDLDMILKMDSLQDIKALLTGLFVQDNVNKDAVTDRLASVETDMPLTLRQHRISATSSSEESSNKGQRQLTVSMKGKEEKEGGARLGAGGGSPEKSPSAQELKEQGNRLFVGRKYPEAAACYGRVITRNPLVAVYYTNRALCYLKMQQHEQALADCRRALELDGQSVKAHFFLGQCQLEMESYDEAIANLQRAYSLAKEQRLNFGDDIPSALRIAKKKRWNSIEERRIHQESELHSYLSRLIAAERERELEECQRNHEGDEDDSHVRAQQACIEAKHDKYMADMDELFSQVDEKRKKRDIPDYLCGKISFELMREPCITPSGITYDRKDIEEHLQRVGHFDPVTRSPLTQEQLIPNLAMKEVIDAFISENGWVEDY
notes: Expressed in yeast strain CG-1945
As to B3, in assay [4], the binding result is “no binding”.

B4: Recombinant hCHIP (His-tagged fusion from plasmid pET-hCHIP, expressed in E. coli BL21) (other, not shown: small tags and cut ends)
chain: MKGKEEKEGGARLGAGGGSPEKSPSAQELKEQGNRLFVGRKYPEAAACYGRVITRNPLVAVYYTNRALCYLKMQQHEQALADCRRALELDGQSVKAHFFLGQCQLEMESYDEAIANLQRAYSLAKEQRLNFGDDIPSALRIAKKKRWNSIEERRIHQESELHSYLSRLIAAERERELEECQRNHEGDEDDSHVRAQQACIEAKHDKYMADMDELFSQVDEKRKKRDIPDYLCGKISFELMREPCITPSGITYDRKDIEEHLQRVGHFDPVTRSPLTQEQLIPNLAMKEVIDAFISENGWVEDY
Regarding B4, in the assay with Human Hsp70 (Stressgen) [5], the “luciferase refolding: decrease of the folding activity of Hsp70” value was 65% and the “luciferase refolding: decrease of the folding activity of Hsp70/Hsp40” value was 64%.

B5: GST-hCHIP fusion protein (amino acid residues 1-303) (other)
chain: B4 chain
notes: also called GST-CHIP; not shown: glutathione S-transferase (GST) encoded by vector pGEX KG
For the molecule B5, the binding result with Human Hsp40 (Stressgen) is “no binding”; with Bovine Hsc70 (Stressgen), “binds”.

B6: 35S-labeled, in vitro translated hCHIP (43-kD S-tagged fusion from vector pCITE-4a) (other)
chain: B4 chain
modifications: 35S-methionine labeled
notes: Made in rabbit reticulocyte lysate; not shown: S-tag and vector-encoded residues of pCITE-4a
In the case of B6, the binding result in assay [6] is recorded as “no binding”.

B7: GST-hCHIP fusion protein (amino acid residues 1-142) (other)
chain: MKGKEEKEGGARLGAGGGSPEKSPSAQELKEQGNRLFVGRKYPEAAACYGRVITRNPLVAVYYTNRALCYLKMQQHEQALADCRRALELDGQSVKAHFFLGQCQLEMESYDEAIANLQRAYSLAKEQRLNFGDDIPSALRIA
notes: Contains the three TPR domains; also called GST construct 2; not shown: glutathione S-transferase (GST) encoded by vector pGEX KG
Take B7: the binding result with Bovine Hsc70 (Stressgen) and with Human Hsp70 (Stressgen) [1] was “no binding” in each case.
